Consider seven molecules from US20230295313A1 (published 2023).

Assay [1] addresses T1, human IL1RAP extracellular domain protein (GK002, HuIL1Racp-ECD-His6) (human, UniProt Q9NPH3 21-367).
T1 construct: also called His-tagged human IL-1RAP extracellular domain protein; HuIL1RAP-ECD-His6 (GK002)
T1 sequence: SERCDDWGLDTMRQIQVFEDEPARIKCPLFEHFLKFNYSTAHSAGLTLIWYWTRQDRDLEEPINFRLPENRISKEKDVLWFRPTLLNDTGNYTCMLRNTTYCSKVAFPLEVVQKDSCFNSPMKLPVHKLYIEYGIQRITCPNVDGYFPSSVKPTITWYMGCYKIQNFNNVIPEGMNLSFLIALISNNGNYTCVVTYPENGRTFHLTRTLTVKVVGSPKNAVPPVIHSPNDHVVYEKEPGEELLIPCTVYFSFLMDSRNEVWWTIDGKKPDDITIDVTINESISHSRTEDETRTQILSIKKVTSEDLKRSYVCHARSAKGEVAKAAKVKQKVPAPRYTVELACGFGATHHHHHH
Put plainly: SPR (Biacore T200), mAb captured by anti-Fc IgG, His-tagged human IL1RAP ECD as analyte. In general terms: SPR reads the build-up and loss of mass on a sensor chip optically.
Experimental: The binding kinetics and affinities of murine anti-human IL1RAP mAbs for human IL1RAP protein were determined by surface plasmon resonance technology using the Biocore T200 platform. An anti-Fc IgG antibody was immobilized on the surface of a Biacore chip and used to capture the test antibody at a flow rate of 30 µL/min. Serial dilutions of His-tagged human IL-1RAP extracellular domain protein were then flowed over the chip, with a 3-minute association phase, followed by a 20-60 minute dissociation phase. In between cycles, the Biacore chip was regenerated for 120 seconds by flowing Glycine pH 1.5 over the chip at a flow rate of 10 µL/min. Association (ka) and dissociation (kd) constants were determined, as were binding affinities (KD), with the multiple cycle kinetics algorithm.

The target in assay [2] is T2, human IL1RAP on the cell surface (HEK293/IL1RAP cells; IL1RAP-expressing OCI-AML-1 cells) (human, UniProt Q9NPH3 21-570).
T2 sequence: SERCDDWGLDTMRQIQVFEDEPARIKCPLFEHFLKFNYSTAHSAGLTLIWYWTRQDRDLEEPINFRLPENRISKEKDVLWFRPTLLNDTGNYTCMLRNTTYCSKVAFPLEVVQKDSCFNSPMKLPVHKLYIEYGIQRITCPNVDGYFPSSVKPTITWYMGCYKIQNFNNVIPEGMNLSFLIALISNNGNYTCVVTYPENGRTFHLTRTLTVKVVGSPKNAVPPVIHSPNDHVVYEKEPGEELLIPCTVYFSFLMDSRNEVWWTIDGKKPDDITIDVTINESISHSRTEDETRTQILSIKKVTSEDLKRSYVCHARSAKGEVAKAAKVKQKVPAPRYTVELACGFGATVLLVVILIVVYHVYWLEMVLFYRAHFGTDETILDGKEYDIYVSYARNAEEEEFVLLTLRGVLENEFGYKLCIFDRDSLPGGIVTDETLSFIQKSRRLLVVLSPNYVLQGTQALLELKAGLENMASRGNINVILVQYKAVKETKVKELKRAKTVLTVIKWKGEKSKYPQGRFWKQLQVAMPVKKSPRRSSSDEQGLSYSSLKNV
Put plainly: cell-based or functional assay.

Assay [3] concerns the target T2, human IL1RAP on the cell surface …. Put plainly: cell-based or functional assay. This is another data set of the same source.
In assay [4] the target is T3, Soluble Human IL1RAP (sIL1RAP) (human, UniProt Q9NPH3 21-367). Put plainly: SPR, antibody captured via Protein A on CM5 chip, 25° C., 1:1 fit, average of 3 runs.
Experimental: (§1) Human and cyno IL1RAP ECD, and human soluble IL1RAP, were then flowed over the captured antibody to replicate non-avid target binding. Data were analyzed using a 1:1 kinetic fit model.
For assay [5], the target named is T4, Cyno IL1RAP ECD (cynomolgus monkey, UniProt A0A2K5X5J5 21-367).
T4 construct: extracellular domain; Analyte in the GSK3903371A SPR study; also called cynomolgus monkey IL1RAP ECD
T4 sequence: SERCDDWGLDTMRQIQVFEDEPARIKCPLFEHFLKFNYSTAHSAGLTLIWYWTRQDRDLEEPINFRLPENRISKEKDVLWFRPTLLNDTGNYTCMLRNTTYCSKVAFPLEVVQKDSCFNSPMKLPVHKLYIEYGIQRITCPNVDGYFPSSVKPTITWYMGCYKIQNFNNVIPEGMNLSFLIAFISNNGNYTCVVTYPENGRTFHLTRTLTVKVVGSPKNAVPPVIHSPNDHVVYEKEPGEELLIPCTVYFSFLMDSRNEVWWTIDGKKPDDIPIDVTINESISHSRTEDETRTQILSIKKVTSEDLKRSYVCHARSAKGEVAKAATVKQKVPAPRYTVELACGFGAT
Described as above.
Experimental: as §1

Assay [6] deals with T5, Human IL1RAP ECD (human, UniProt Q9NPH3 21-367).
T5 construct: Analyte in the GSK3903371A SPR study; also called human IL1RAP extracellular domain (ECD); recombinant human IL1RAP ECD
T5 sequence: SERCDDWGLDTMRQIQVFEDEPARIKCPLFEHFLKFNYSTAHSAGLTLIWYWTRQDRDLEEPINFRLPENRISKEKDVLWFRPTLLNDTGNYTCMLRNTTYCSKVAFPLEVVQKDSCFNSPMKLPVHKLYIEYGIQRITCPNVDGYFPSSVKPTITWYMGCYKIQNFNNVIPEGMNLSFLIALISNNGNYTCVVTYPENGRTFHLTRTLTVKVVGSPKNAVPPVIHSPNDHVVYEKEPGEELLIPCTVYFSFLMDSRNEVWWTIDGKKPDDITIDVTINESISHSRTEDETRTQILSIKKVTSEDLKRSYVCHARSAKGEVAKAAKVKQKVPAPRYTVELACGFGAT
Described as above.
Experimental: as §1

Assay [7] has as its target T3, Soluble Human IL1RAP (sIL1RAP). Put plainly: SPR, antibody captured via Protein A on CM5 chip, 37° C., 1:1 fit, average of 2 runs.
Experimental: as §1
In assay [8] the target is T4, Cyno IL1RAP ECD. The assay is described as above.
Experimental: as §1
The target in assay [9] is T5, Human IL1RAP ECD. The description is as above.
Experimental: as §1
The assay “cyno IL1RAP (GK017, …)” has as its target T6, cyno IL1RAP (GK017, CynoIL1Racp-ECD-His6) (cyno, UniProt A0A2K5X5J5 21-367).
T6 construct: extracellular domain; also called CynoIL1RAP-ECD-His6 (GK017); cyno IL1RAP-ECD-His6 protein
T6 sequence: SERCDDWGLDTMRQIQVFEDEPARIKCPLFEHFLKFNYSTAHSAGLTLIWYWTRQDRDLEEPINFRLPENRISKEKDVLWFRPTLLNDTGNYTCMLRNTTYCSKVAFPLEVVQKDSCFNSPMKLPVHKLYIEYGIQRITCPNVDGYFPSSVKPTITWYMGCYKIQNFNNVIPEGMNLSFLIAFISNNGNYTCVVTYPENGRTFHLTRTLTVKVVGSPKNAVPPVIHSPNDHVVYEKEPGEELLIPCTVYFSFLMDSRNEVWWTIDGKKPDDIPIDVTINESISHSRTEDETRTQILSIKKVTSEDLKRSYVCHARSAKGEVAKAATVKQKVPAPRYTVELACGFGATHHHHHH
Put plainly: SPR (Biacore T200), mAb captured by anti-human IgG Fc on CM5, ECD-His6 as analyte, 1:1 fit.
Experimental: (§2) Serial dilutions of recombinant human IL1RAP-ECD-His6 protein (GK002) or cyno IL1RAP-ECD-His6 protein (GK017) were flowed over the captured humanized mAb, and the KD was determined using Biacore T200 evaluation software v1.0.
(§3) Flow cell 1 was used as reference flow cell and no antibody was injected into flow cell 1. Test antibodies were captured onto one of the flow cells 2, 3 and 4 at a flow rate of 10 µL/min. Diluted GK002 or GK017 was then injected over the 4 flow cells for 180 s at 30 µL/min flow rate to collect data for association. Buffer flow was maintained for 1200 s at 30 µL/min flow rate for dissociation measurement. At the end of the dissociation measurement, the tested antibody and antigen were removed from the surface by 10 mM glycine-HCl pH 1.5 injection for 60 seconds at a flow rate of 10 µL/min. The above steps were repeated for each concentration of serially-diluted His-tagged IL1RAP ECD protein. The KD value for each antibody was evaluated using Biacore T200 evaluation software 1.0, and the data was fit with a 1:1 binding model.

The target in assay [10] is T1, human IL1RAP extracellular domain …. The assay is described as above.
Experimental: as §2, §3

B1: murine mAb067 (antibody, V domains shown)
VH: QVKLHQSGAELAKPGASVKMSCKASGYTFNSYWIHWVKQRPGQGLEWIGYNNPTSGYSEYNQKFTDKATLSADKSSSTAYMQLSSLTSEDSAVYYCVREYGDLFAYWGQGTLVTVSA
VL: NIVMTQSPKSMSMSVGERVTLSCKASENVGYSVSWFQQKPDQSPKLLIYGASNRYTGVPDRFTGSGSATDFTLTISTVQAEDLADYHCGQIYIYPYTFGGGTKLEIK
notes: Murine anti-human IL1RAP mAb
B1: in [1], the equilibrium dissociation constant (Kd) (in general, the equilibrium constant for the complex coming apart) is 0.3 nM; the koff (commonly a measure of how fast the partners let go of each other) turned out to be 0.000102 s⁻¹; the kon (usually a measure of how fast the partners come together) was determined as 340000 M⁻¹ s⁻¹.

B2: GSK3903371A (antibody, human IgG1, kappa, V domains shown)
VH: EVQLVQSGAEVKKPGSSVKVSCKASGYTFNSYWIHWVRQAPGQGLEWMGYNNPTSGYSEYNQKFTDRVTITADKSTSTAYMELSSLRSEDTAVYYCAREYGDLFAYWGQGTLVTVSS
VL: AIQMTQSPSSLSASVGDRVTITCKASENVGYSVSWFQQKPGKSPKLLIYGASNRYTGVPSRFSGSGSATDFTLTISSLQPEDFATYHCGQIYIYPYTFGGGTKVEIKR
modifications: heavy chain constant region afucosylated (expressed in FUT8-knockout POTELLIGENT CHO cells)
notes: Humanized IgG1 kappa; also called afucosylated anti-IL1RAP mAb GSK3903371A
For the molecule B2, the “ADCC EC50, PBMC effector cells, OCI-AML-1 target cells, experiment 1” value in assay [2] was 0.0633 nM. For the same molecule, in [2], the “ADCC EC50, PBMC effector cells, OCI-AML-1 target cells, experiment 2” value was 0.0589 nM. Also, in [2], the “ADCC EC50, PBMC effector cells, OCI-AML-1 target cells, experiment 3” value was determined as 0.0705 nM. For the same molecule, in assay [2], the “ADCC EC50, geometric mean (n=3), OCI-AML-1 target cells” value came out at 0.0641 nM. Also, the “CDC EC50, HEK293/IL1RAP target cells, experiment 1” value in assay [3] was 6.16 nM. For the same molecule, in assay [3], the “CDC EC50, HEK293/IL1RAP target cells, experiment 2” value amounted to 5.9 nM. Besides, the Kd in [4] amounted to 2.03 nM; in the assay with Cyno IL1RAP ECD [5], 1.53 nM; in the assay with Human IL1RAP ECD [6] it was 1.61 nM; in assay [7], 3.58 nM; with Cyno IL1RAP ECD [8] it was 3.47 nM; with Human IL1RAP ECD [9] it was 2.54 nM. Also, the koff in assay [4] amounted to 0.000199 s⁻¹; with Cyno IL1RAP ECD [5] it was 0.000226 s⁻¹; with Human IL1RAP ECD [6], 0.000268 s⁻¹; in assay [7], 0.00101 s⁻¹; with Cyno IL1RAP ECD [8], 0.000946 s⁻¹; with Human IL1RAP ECD [9] it was 0.000942 s⁻¹.

B3: mAb067-12 (humanized) (antibody, human IgG1, kappa, V domains shown)
VH: EVQLVQSGAEVKKPGSSVKVSCKASGYTFNSYWIHWVRQAPGQGLEWMGYNNPTSGYSEYNQKFTDRVTITADKSTSTAYMELSSLRSEDTAVYYCAREYGDLFAYWGQGTLVTVSS
VL: AIQMTQSPSSLSASVGDRVTITCKASENVGYSVSWFQQKPGKSPKLLIYGASNRYTGVPSRFSGSGSATDFTLTISSLQPEDFATYHCGQIYIYPYTFGGGTKVEIKR
notes: Fucosylated humanized IgG1; same chains as GSK3903371A; also called HumAb67-12; HumAb067-12
With B3, in assay [3], the “CDC EC50, HEK293/IL1RAP target cells, experiment 1” value amounted to 5.13 nM and the “CDC EC50, HEK293/IL1RAP target cells, experiment 2” value was determined as 4.7 nM. In the assay with cyno IL1RAP (GK017, …), this molecule yielded a Kd of 0.899 nM, a koff of 0.00015 s⁻¹ and a kon of 167000 M⁻¹ s⁻¹. Further, in [10], the Kd was 0.953 nM, the koff was 0.000161 s⁻¹ and the on-rate (kon) came to 169000 M⁻¹ s⁻¹.

B4: murine mAb117 (antibody, V domains shown)
VH: QAYLQQSGAELVRPGASVKMSCKASGYTFTSYNMHWVKQSPRQGLEWVGVFYLGNGDTSYNEKFKGKATLTVDKSSSTAYMQLSSLTSEDSAVYFCARPGGYANWYFDVWGTGTTVTVSS
VL: DIVMTQSQKFMSTSVGDWVSVTCKASQNVGTEVSWYQQKPGQSPNTLIYSASYRHSGVPDRFTGSGSGTEFTLTITNVQSEDLADYFCQQYNSFPLTFGAGTKLDLK
notes: Murine anti-human IL1RAP mAb
In [1], B4 returned a dissociation constant (Kd) of 0.193 nM, a koff of 4.28e-05 s⁻¹ and an on-rate (kon) of 222000 M⁻¹ s⁻¹.

B5: murine mAb048 (antibody, V domains shown)
VH: QVQLQQPGADLVKPGASVKLSCKAYGYTFFSYWMHWVRQRPGQGLEWIGMIHPNSGTTNNNEKFKSKATLTVDKSFSTAYMQLSSLTSEDSAVYYCARGYSNYDFDYWGQGTILTVSS
VL: DIKMTQFPSSMYASLGERVTITCKASQDINTYLIWIQQKPGKSPKTLIYRANRLADGVPSRFSGSGSGQDSSLTISSLEHEDMGIYYCLQYDEFPYTFGGGTKLEIK
notes: Murine anti-human IL1RAP mAb
As for B5, in assay [1], the Kd came to 0.357 nM, the koff came to 4.48e-05 s⁻¹ and the on-rate (kon) worked out at 125000 M⁻¹ s⁻¹.

B6: mAb063 (antibody, V domains shown)
VH: EVQLQQSGPELVKPGASVKISCKASGYTFTDYYMNWVKQSHGKSLEWIGHINPNSGSTTYTEKFKDKATLTVDKSSSTAYMELRSLTSDDSAVYYCVRRIGKNWHCDVWGTGTTVTVSS
VL: DIVLTQSPASLAVSLGQRATISCRASESVNFHGTHLMHWYQQKPGQAPKLLIYAASNLDSGVPARFSGSGSETDFTLNIHPVEEEDAATYFCQQSIEDPFTFGSGTYLEIK
notes: Murine anti-human IL1RAP mAb; also called murine mAb063
In assay [1], B6 displayed an equilibrium dissociation constant (Kd) of 0.0496 nM, a koff of 2.12e-05 s⁻¹ and a kon of 426000 M⁻¹ s⁻¹.

B7: murine mAb001 (antibody, V domains shown)
VH: QVQLQQPGAELVRPGSSVKLSCKASGYTFTSYWMDWVKQRPGQGLEWIGNIYPSDSKTHYNQKFKDKATLTVDKSSSTAYMQLSSLTSEDSAVYYCARDYYGSIGMDYWGQGTSVTVSS
VL: DIQMTQSPSSLSASLGERVSLTCRASQEISGYLSWLQQKPDGTIKRLIYAASTLDSGVPKRFSGSRSGSDYSLTISSLESEDFADYYCLQYASYPWTFGGGTKLEIK
notes: Murine anti-human IL1RAP mAb
In assay [1], B7 had a dissociation constant (Kd) of 4.97 nM, a koff of 0.000282 s⁻¹ and a kon of 56700 M⁻¹ s⁻¹.
